Experimental data as given in patent publication US20200079833A1 (AstraZeneca / MedImmune, published 2020).
Starred links: 1 amine or outer side, 2 acyl side, 3 side chain; linkers in the order of their positions; H or OH if unused. Non-standard residues stand in square brackets, D forms with d. Groups on a side chain read outwards from the residue. Primed or numbered codes have the meaning given here. No end group written: not given here. *: point of attachment. γGlu = O=C(O)[C@H](CCC(=O)[*:2])N[*:1]; Stearoyl = CCCCCCCCCCCCCCCCCC(=O)*; αMeF = C[C@](N)(Cc1ccccc1)C(=O)O; αMeK = C[C@](N)(CCCCN)C(=O)O; αMeS = C[C@](N)(CO)C(=O)O; PEG2′ = not defined here; Aib = CC(C)(N)C(=O)O

T1: glucose-dependent insulinotropic peptide (gastric inhibitory polypeptide) receptor (GIPR) (human, UniProt P48546 22-466)
T1 sequence (looked up): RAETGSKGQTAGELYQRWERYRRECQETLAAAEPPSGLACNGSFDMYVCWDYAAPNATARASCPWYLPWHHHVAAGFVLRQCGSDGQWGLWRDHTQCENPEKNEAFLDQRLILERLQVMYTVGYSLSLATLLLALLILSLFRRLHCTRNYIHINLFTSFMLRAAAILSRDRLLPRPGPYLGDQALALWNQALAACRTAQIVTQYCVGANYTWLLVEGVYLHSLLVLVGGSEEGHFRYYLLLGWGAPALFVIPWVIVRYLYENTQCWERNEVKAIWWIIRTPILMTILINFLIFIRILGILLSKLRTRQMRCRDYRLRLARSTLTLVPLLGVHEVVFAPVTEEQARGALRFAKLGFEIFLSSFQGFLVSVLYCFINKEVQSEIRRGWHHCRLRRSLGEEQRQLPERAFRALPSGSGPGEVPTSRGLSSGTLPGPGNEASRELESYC

T2: GLP-1R (INS1e assay) (UniProt P32301 22-463, limits assumed)
T2 sequence (looked up): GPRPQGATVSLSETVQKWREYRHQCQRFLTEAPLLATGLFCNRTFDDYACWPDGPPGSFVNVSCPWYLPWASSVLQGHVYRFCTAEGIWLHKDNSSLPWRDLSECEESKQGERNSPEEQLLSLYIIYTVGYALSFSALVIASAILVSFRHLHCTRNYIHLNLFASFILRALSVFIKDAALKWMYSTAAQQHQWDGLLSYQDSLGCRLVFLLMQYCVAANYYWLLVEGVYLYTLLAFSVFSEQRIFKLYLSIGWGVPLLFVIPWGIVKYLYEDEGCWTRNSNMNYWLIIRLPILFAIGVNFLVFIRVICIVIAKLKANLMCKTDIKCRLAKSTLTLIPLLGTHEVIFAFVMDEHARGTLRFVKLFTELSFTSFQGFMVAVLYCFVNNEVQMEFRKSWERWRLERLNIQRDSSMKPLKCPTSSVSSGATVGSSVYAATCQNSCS

B1: SEQ ID NO 146 (peptide)
peptide: H[Aib]EGS[αMeF]TSDV[αMeS]S[αMeF]LEGEAAK([γGlu-Stearoyl])E[αMeF]IA[αMeF]VV[αMeK]GG-NH2
modifications: N-terminus assumed
SMILES: CCCCCCCCCCCCCCCCCC(=O)N[C@@H](CCC(=O)NCCCC[C@H](NC(=O)[C@H](C)NC(=O)[C@H](C)NC(=O)[C@H](CCC(=O)O)NC(=O)CNC(=O)[C@H](CCC(=O)O)NC(=O)[C@H](CC(C)C)NC(=O)[C@](C)(Cc1ccccc1)NC(=O)[C@H](CO)NC(=O)[C@](C)(CO)NC(=O)[C@@H](NC(=O)[C@H](CC(=O)O)NC(=O)[C@H](CO)NC(=O)[C@@H](NC(=O)[C@](C)(Cc1ccccc1)NC(=O)[C@H](CO)NC(=O)CNC(=O)[C@H](CCC(=O)O)NC(=O)C(C)(C)NC(=O)[C@@H](N)Cc1c[nH]cn1)[C@@H](C)O)C(C)C)C(=O)N[C@@H](CCC(=O)O)C(=O)N[C@@](C)(Cc1ccccc1)C(=O)N[C@H](C(=O)N[C@@H](C)C(=O)N[C@@](C)(Cc1ccccc1)C(=O)N[C@H](C(=O)N[C@H](C(=O)N[C@@](C)(CCCCN)C(=O)NCC(=O)NCC(N)=O)C(C)C)C(C)C)[C@@H](C)CC)C(=O)O
B2: SEQ ID NO 147 (peptide)
peptide: H[Aib]EGS[αMeF]TSDV[αMeS]S[αMeF]LEGEAAK([γGlu-γGlu-Stearoyl])E[αMeF]IA[αMeF]VV[αMeK]GG-NH2
modifications: N-terminus assumed
SMILES: CCCCCCCCCCCCCCCCCC(=O)N[C@@H](CCC(=O)N[C@@H](CCC(=O)NCCCC[C@H](NC(=O)[C@H](C)NC(=O)[C@H](C)NC(=O)[C@H](CCC(=O)O)NC(=O)CNC(=O)[C@H](CCC(=O)O)NC(=O)[C@H](CC(C)C)NC(=O)[C@](C)(Cc1ccccc1)NC(=O)[C@H](CO)NC(=O)[C@](C)(CO)NC(=O)[C@@H](NC(=O)[C@H](CC(=O)O)NC(=O)[C@H](CO)NC(=O)[C@@H](NC(=O)[C@](C)(Cc1ccccc1)NC(=O)[C@H](CO)NC(=O)CNC(=O)[C@H](CCC(=O)O)NC(=O)C(C)(C)NC(=O)[C@@H](N)Cc1c[nH]cn1)[C@@H](C)O)C(C)C)C(=O)N[C@@H](CCC(=O)O)C(=O)N[C@@](C)(Cc1ccccc1)C(=O)N[C@H](C(=O)N[C@@H](C)C(=O)N[C@@](C)(Cc1ccccc1)C(=O)N[C@H](C(=O)N[C@H](C(=O)N[C@@](C)(CCCCN)C(=O)NCC(=O)NCC(N)=O)C(C)C)C(C)C)[C@@H](C)CC)C(=O)O)C(=O)O
B3: SEQ ID NO 148 (peptide)
peptide: H[Aib]EGS[αMeF]TSDV[αMeS]S[αMeF]LEGEAAK([γGlu-γGlu-γGlu-Stearoyl])E[αMeF]IA[αMeF]VV[αMeK]GG-NH2
modifications: N-terminus assumed
SMILES: CCCCCCCCCCCCCCCCCC(=O)N[C@@H](CCC(=O)N[C@@H](CCC(=O)N[C@@H](CCC(=O)NCCCC[C@H](NC(=O)[C@H](C)NC(=O)[C@H](C)NC(=O)[C@H](CCC(=O)O)NC(=O)CNC(=O)[C@H](CCC(=O)O)NC(=O)[C@H](CC(C)C)NC(=O)[C@](C)(Cc1ccccc1)NC(=O)[C@H](CO)NC(=O)[C@](C)(CO)NC(=O)[C@@H](NC(=O)[C@H](CC(=O)O)NC(=O)[C@H](CO)NC(=O)[C@@H](NC(=O)[C@](C)(Cc1ccccc1)NC(=O)[C@H](CO)NC(=O)CNC(=O)[C@H](CCC(=O)O)NC(=O)C(C)(C)NC(=O)[C@@H](N)Cc1c[nH]cn1)[C@@H](C)O)C(C)C)C(=O)N[C@@H](CCC(=O)O)C(=O)N[C@@](C)(Cc1ccccc1)C(=O)N[C@H](C(=O)N[C@@H](C)C(=O)N[C@@](C)(Cc1ccccc1)C(=O)N[C@H](C(=O)N[C@H](C(=O)N[C@@](C)(CCCCN)C(=O)NCC(=O)NCC(N)=O)C(C)C)C(C)C)[C@@H](C)CC)C(=O)O)C(=O)O)C(=O)O
B4: SEQ ID NO 184 (peptide)
peptide: H[Aib]EGS[αMeF]TSDV[αMeS]S[αMeF]LEGEAA[αMeK]E[αMeF]IA[αMeF]VVK([γGlu-γGlu-γGlu-Stearoyl])GG-NH2
modifications: N-terminus assumed
SMILES: CCCCCCCCCCCCCCCCCC(=O)N[C@@H](CCC(=O)N[C@@H](CCC(=O)N[C@@H](CCC(=O)NCCCC[C@H](NC(=O)[C@@H](NC(=O)[C@@H](NC(=O)[C@](C)(Cc1ccccc1)NC(=O)[C@H](C)NC(=O)[C@@H](NC(=O)[C@](C)(Cc1ccccc1)NC(=O)[C@H](CCC(=O)O)NC(=O)[C@](C)(CCCCN)NC(=O)[C@H](C)NC(=O)[C@H](C)NC(=O)[C@H](CCC(=O)O)NC(=O)CNC(=O)[C@H](CCC(=O)O)NC(=O)[C@H](CC(C)C)NC(=O)[C@](C)(Cc1ccccc1)NC(=O)[C@H](CO)NC(=O)[C@](C)(CO)NC(=O)[C@@H](NC(=O)[C@H](CC(=O)O)NC(=O)[C@H](CO)NC(=O)[C@@H](NC(=O)[C@](C)(Cc1ccccc1)NC(=O)[C@H](CO)NC(=O)CNC(=O)[C@H](CCC(=O)O)NC(=O)C(C)(C)NC(=O)[C@@H](N)Cc1c[nH]cn1)[C@@H](C)O)C(C)C)[C@@H](C)CC)C(C)C)C(C)C)C(=O)NCC(=O)NCC(N)=O)C(=O)O)C(=O)O)C(=O)O

Biological target: GLP-1 receptor (GLP-1R) (human, UniProt P43220 24-463)
Assay: cell-based or functional assay

**Q.** What does the source list for B1?
**A.** cAMP Mean pM GLP-1R: 69 pM; cAMP Primary assay EC50 GLP-1R n1: 0.096 nM; cAMP Primary assay EC50 GLP-1R n2: 0.042 nM

**Q.** B2 was tested. Which “cAMP Mean pM GLP-1R” value did it give?
**A.** 23.2 pM

**Q.** And the “cAMP Primary assay EC50 GLP-1R n1” value?
**A.** 0.032 nM

**Q.** And the “cAMP Primary assay EC50 GLP-1R n2” value?
**A.** 0.014 nM

**Q.** How did the “cAMP Mean pM GLP-1R” value turn out when B3 was run?
**A.** 12.1 pM

**Q.** And the “cAMP Primary assay EC50 GLP-1R n1” value?
**A.** 0.016 nM

**Q.** And the “cAMP Primary assay EC50 GLP-1R n2” value?
**A.** 0.0087 nM

Biological target: glucagon receptor (GCGR) (human, UniProt P47871 26-477)
Assay: cell-based or functional assay

Sequence of glucagon receptor (GCGR) (P47871 26-477): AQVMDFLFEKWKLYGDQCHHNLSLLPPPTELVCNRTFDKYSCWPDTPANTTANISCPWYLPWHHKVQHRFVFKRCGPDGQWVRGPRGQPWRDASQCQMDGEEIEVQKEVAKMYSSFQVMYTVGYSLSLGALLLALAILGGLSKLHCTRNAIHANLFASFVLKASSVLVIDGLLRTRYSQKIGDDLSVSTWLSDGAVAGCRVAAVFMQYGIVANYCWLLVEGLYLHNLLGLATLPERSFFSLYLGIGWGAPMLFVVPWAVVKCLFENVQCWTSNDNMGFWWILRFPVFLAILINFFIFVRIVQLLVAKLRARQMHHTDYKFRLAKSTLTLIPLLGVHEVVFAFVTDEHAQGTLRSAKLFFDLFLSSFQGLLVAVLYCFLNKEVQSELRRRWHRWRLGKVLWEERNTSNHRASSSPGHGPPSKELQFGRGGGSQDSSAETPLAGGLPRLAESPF

**Q.** What does the source list for B1?
**A.** cAMP Primary assay EC50 Gluc-R: 28 nM; cAMP Primary assay EC50 Gluc-R (2nd): 28 nM

**Q.** How did the “cAMP Primary assay EC50 Gluc-R” value turn out when B2 was run?
**A.** 27 nM

**Q.** And the “cAMP Primary assay EC50 Gluc-R (2nd)” value?
**A.** 27 nM

**Q.** B3 was tested. Which “cAMP Primary assay EC50 Gluc-R” value did it give?
**A.** 26 nM

**Q.** What about the “cAMP Primary assay EC50 Gluc-R (2nd)” value of the same binder?
**A.** 26 nM

Biological target: T1, glucose-dependent insulinotropic …
Assay: cell-based or functional assay

**Q.** With B1 as the binder, how does the “cAMP Primary assay EC50 GIP-R” value read?
**A.** 28 nM

**Q.** What about the “cAMP Primary assay EC50 GIP-R (2nd)” value of the same binder?
**A.** 28 nM

**Q.** How did the “cAMP Primary assay EC50 GIP-R” value turn out when B2 was run?
**A.** 27 nM

**Q.** And the “cAMP Primary assay EC50 GIP-R (2nd)” value?
**A.** 27 nM

**Q.** How did the “cAMP Primary assay EC50 GIP-R” value turn out when B3 was run?
**A.** 26 nM

**Q.** What about the “cAMP Primary assay EC50 GIP-R (2nd)” value of the same binder?
**A.** 26 nM

Biological target: T2, GLP-1R (INS1e assay)
Assay: cell-based or functional assay

**Q.** H[Aib]EGS[αMeF]TSDV[αMeS]S[αMeF]LEGEAA[αMeK]E[αMeF]IA[αMeF]VVK([PEG2′-PEG2′-Stearoyl])GG-NH2 [SEQ ID NO 189] was tested. Which “INS1e assay EC50 GLP-1 R n1” value did it give?
**A.** 0.114 nM

**Q.** What about the “INS1e assay EC50 GLP-1 R n2” value of the same binder?
**A.** 0.173 nM

**Q.** And the “INS1e assay EC50 Mean pM GLP-1R” value?
**A.** 144 pM

**Q.** What does the source list for H[Aib]EGS[αMeF]TSDV[αMeS]S[αMeF]LEGEAA[αMeK]E[αMeF]IA[αMeF]VVK([PEG2′-PEG2′-PEG2′-Stearoyl])GG-NH2 [SEQ ID NO 199]?
**A.** INS1e assay EC50 GLP-1 R n1: 0.787 nM; INS1e assay EC50 GLP-1 R n2: 2.13 nM; INS1e assay EC50 Mean pM GLP-1R: 1460 pM

**Q.** How did the “INS1e assay EC50 GLP-1 R n1” value turn out when H[Aib]EGS[αMeF]TSDV[αMeS]S[αMeF]LEGEAA[αMeK]E[αMeF]IA[αMeF]VVK([PEG2′-PEG2′-PEG2′-Stearoyl])GG-NH2 [SEQ ID NO 190] was run?
**A.** 0.0397 nM

**Q.** And the “INS1e assay EC50 GLP-1 R n2” value?
**A.** 0.0485 nM

**Q.** And the “INS1e assay EC50 Mean pM GLP-1R” value?
**A.** 44.1 pM

**Q.** Which “INS1e assay EC50 GLP-1 R n1” value does the source give for H[Aib]EGS[αMeF]TSDV[αMeS]S[αMeF]LEGEAA[αMeK]E[αMeF]IA[αMeF]VVK([PEG2′-PEG2′-Stearoyl])GG-NH2 [SEQ ID NO 198] here?
**A.** 1.38 nM

**Q.** And the “INS1e assay EC50 GLP-1 R n2” value?
**A.** 0.89 nM

**Q.** And the “INS1e assay EC50 Mean pM GLP-1R” value?
**A.** 1140 pM

**Q.** For B4, which “INS1e assay EC50 GLP-1 R n1” value is on record?
**A.** 0.351 nM

**Q.** What about the “INS1e assay EC50 GLP-1 R n2” value of the same binder?
**A.** 0.501 nM

**Q.** And the “INS1e assay EC50 Mean pM GLP-1R” value?
**A.** 426 pM
